Measured values reported in patent US20080311122A1, “Antagonists of Hmgb1 and/or Rage and Methods of Use Thereof” (Medimmune, LLC, priority 2005, published 2008).
Entries after “also recorded” stand apart in the source; their conditions may differ.

B1: E11: human anti-HMG1 antibody, recognizes HMG1 A-Box; VL/VH aa SEQ ID NO: 24/26 (antibody, listed as Homo sapiens, V domains shown)
VH: EVQLLESGGGLVQPGGSLRLSCAASGFTFSRYQMNWVRQAPGKGLEWVSSISPSGGHTHYADSVKGRFTISRDNSKNTLYLQMNSLRAEDTAVYYCAKDGRQGKISTVDHWGQGTLVTVSS
VL: AQDIQMTQSPGTLSLSPGERATLSCRASQSVRSNFLAWYQQKPGQAPRLLIYGASRRASGIPDRFSGSGFGADFTLSISRLEPEDFAVYYCQQYGSSPNTFGQGSRVEIK
B2: S16: human anti-HMG1 antibody, ATCC PTA-6259; VL/VH aa SEQ ID NO: 13/15 (antibody, listed as Homo sapiens, V domains shown)
VH: EVQLLESGGGLVQPGGSLRLSCAASGFTFSWYSMLWVRQAPGKGLEWVSYISPSGGFTNYADSVKGRFTISRDNSKNTLYLQMNSLRAEDTAVYYCARWDYNSGWYYDHWGQGTLVTVSS
VL: AQDIQMTQSPDTLSLSPGERATLSCRASQSVNSRNLAWYQQKPGQAPRLLIYGASTRATGIPDRFSGSVSGTEFTLTISSLQPDDFATYYCQQYNSYFTFGQGTKLEIK

Tests used:
[1] = test system: CpG2216+thymus HMG1 induced IFN-a release (TLR9 signaling); assay: Inhibition of HMG1 mediated enhancement of TLR9 signaling, CpG2216 + thymus HMG1 in bone marrow cells; assay type: cell-based; conditions: mouse bone marrow cells
Description: HMGB1+TLR Ligand: Freshly isolated bone marrow cells were stimulated with TLR ligands (TLR3:PolyIC@5 μg/mL; TLR4:LPS@2.5 ng/mL; TLR5:flagellin@0.25 μg/mL; TLR7:polyU@4 μg/mL or R837@5 μg/mL; TLR9:CpG2216@1 μM) with or without presence of thymus HMGB1 (10 μg/mL) for 24 hr. Cytokines in the supernatant were measured by ELISA.
Inhibition of HMG1 Mediated Enhancement of TLR Signaling: Freshly isolated bone marrow cells were stimulated with TLR9 ligand CpG2216 (0.3 μM) and thymus HMGB1 (10 μg/mL) in the presence of different concentration of the anti-HMGB1 mAb E11 or control human IgG for 24 hr and IFN-a in the supernatant was measured by ELISA. CpG2216, HMGB1 and nonstimulatory DNA were used alone or in combination as controls for the assay.

[2] = test system: active CIA mouse model of arthritis; assay: Active collagen-induced arthritis (CIA) mouse model; assay type: in vivo; conditions: percent protection, isotype control subtracted
Description: Induction of Active Collagen Induced Arthritis (CIA) in Mice: Six-eight week old male DBA/1J mice (Jackson Labs, Bar Harbor, Me.) were used. On day 0, isoflurane anesthetized animals were given an intradermal injection, at base of tail, of 200 μg bovine Type II collagen (CII) dissolved in 50 μl 0.1 N acetic acid and emulsified with an equal volume of complete Freund's adjuvant (Chondrex, Redmond, Wash.). Three weeks later on day 21 they were given a second similar intradermal injection of 100 μg of CII dissolved in 25 μl 0.1N acetic acid and emulsified with an equal volume of incomplete Freund's adjuvant (Difco, Detroit, Mich.).
Monitoring Disease in Mice: Beginning at day 14 all animals were observed daily to assess the status of the disease in their paws, which was done by assigning a qualitative clinical score to each of the paws. Every day, each animal has its 4 paws scored according to its state of clinical disease. The scoring is done by two observers, with at least one blinded. In addition, each mouse is weighed, to follow body weight changes, at the same time the paws are scored.
The grading scale for the 4 lateral digits of each paw are graded as involved or not involved, i.e., 1 or 0. For example, a maximally involved left rear paw would be scored: ankle=3, midfoot=3, digits=4 (clinical score=10 units) We would repeat this for each paw and sum the scores. […]

[3] = biological target: T1, native (thymus) HMG1 binding to RAGE/Fc (Bos taurus, UniProt P10103); assay: Inhibition of native HMG1 binding to Rage-Fc (ELISA); parameters: species or system bovine; conditions: at the concentrations tested
T1 construct: from tissue; host or cells: bovine (calf) thymus
T1 sequence (P10103 2-215 limits assumed): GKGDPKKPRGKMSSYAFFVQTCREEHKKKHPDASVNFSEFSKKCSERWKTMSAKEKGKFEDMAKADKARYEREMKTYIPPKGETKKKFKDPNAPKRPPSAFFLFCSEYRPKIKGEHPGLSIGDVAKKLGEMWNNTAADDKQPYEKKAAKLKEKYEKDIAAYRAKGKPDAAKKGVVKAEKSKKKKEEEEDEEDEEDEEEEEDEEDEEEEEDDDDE
Description: Inhibition of Native HMG1 Binding to Rage-Fc: Recombinant RAGE/Fc was coated on ELISA plate at 5 μg/mL, 0.1 mL/well. HMGB1 (0.5 μg/mL) was pre-incubated with anti-HMGB1 mAb clone E-11 or G-4 at different concentrations for 0.5 hr. After blocking the plate, anti-HMGB1 mAb pre-incubated HMGB1 was added to RAGE/Fc coated plate for 2 hr. RAGE bound HMGB1 was detected with Biotin labeled anti-HMGB1 pAb.

[4] = biological target: T2, HMG1 (recombinant, native; immobilized, soluble) (Homo sapiens, UniProt P09429); assay: Direct and sandwich (capture) ELISA comparing forms of HMG1; assay type: binding; conditions: capture ELISA
T2 construct: made in house; host or cells: E. coli
T2 sequence (P09429 1-215): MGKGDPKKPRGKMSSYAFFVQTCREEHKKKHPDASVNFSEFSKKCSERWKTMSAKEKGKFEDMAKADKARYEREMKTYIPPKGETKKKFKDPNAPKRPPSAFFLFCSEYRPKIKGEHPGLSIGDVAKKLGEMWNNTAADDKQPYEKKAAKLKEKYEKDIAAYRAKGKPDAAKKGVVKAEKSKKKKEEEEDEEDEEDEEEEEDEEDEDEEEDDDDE
Method in brief: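 Direct format: HMGB-1 coated at 5 μg/ml, human anti-HMG1 antibodies titrated, anti-human IgG-HRP, A450. Sandwich format: antibodies (from 20 μg/ml, serial dilutions) captured on anti-human IgG Fc, then soluble HMGB1 at 2 μg/ml (native 0.7 μg/ml), mouse anti-HMGB1 at 1 μg/ml, anti-mouse IgG-HRP, A450; steps 1 h, 37° C.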

Row | Molecule | inhibition of IFN-a release induced by CpG + thymus HMG1 [1] | inhibition of IFN-a release induced by CpG alone [1] | in vivo CIA active [2] | block of native (thymus) HMG1 binding to RAGE [3] | binding to native nuclear, necrotic (released) and activated HMG1 [4]
1 | B1 | could be blocked; also recorded: inhibited the release of INF-a induced by CpG2216+thymus HMG1 | not blocked; also recorded: Neither E11, G4 or Rage/Fc inhibited | 0% | significant ability to block the binding of native HMG1 to RAGE; also recorded: can block native HMG1 binding | –
2 | B2 | – | – | – | – | little difference in binding to the various native forms of HMG1
